Assay: label from the status in PepcDB records

Row | Sequence | protein production
1 | MRGYVLGLLALNLLTLIWGTTFVVVKGAVEGMAPSLLILLRFGVAALFFLPWLFRLPVGVFGPGMELAFWLFVGYASQTLGLAHTSASRSAFITALSVVLVPLLLRLAGREVGPAFLAAFLALAGVGLLSYDPYQPPFNVGDLWTFLTALAYALYIVRLEVHARAFPSLPLTAVQVLGTALFALPWVLAEGGAWGPVAWGAVLYLGVVATALTTWLQTWGQRHVPAPQAAILYTLEPVWAAFFAYLALGERLSPSGLLGALLVLLATLLAIRRSPA | failed
2 | MRHFGPISGIATFKDTYVATAGYDNQVILWDARTRTPIQRVLHDHLANQCAFNAAGTLLVSASSDYTARVWEVPSLRLKTVLIGHDDDIEMAAFSPDGQTIATCSRDHSIRLFNLSGQTLRILHGHTADVISVCWSADGQTLVSSSDDGSIRRWDANTGQQLETIDLGGVETDTVALSREGIIFAGDDEGKISIISPRGTLLQPAHSAGIKRIIWDDSQRLLISLSYDRSVMLWHLKQDGTLVKTAETSLPSIIWPRSCALLGSHRIAFVTFGSRYATWDFATQTWDLSGIEPAVSLNAVAVVGEDVYSIGDAGILHINGQPSIKAGSLCNFLLPFGDSVLTGGQMGTVFDARTGATLYQHRSPLNCGTTFIKDGALHAAIGTYTGEALIFCLDQQQPRFVTQVRMHENAIKGIAADETYIFSVCATAAAAFFRIADFGLETYLDKAHERISNGCTQIQGGFASIGRDLKLRLWRDGASEVFDTPHSHSIKCIAISRDRSMIATGSYGGTVAVFDLKKRVWASVEKPTASGISCLIHDASGEGFLASAYDGRIYPITPRAAVQSARP | failed
3 | MRHVSNGDPVRVVIVTDGAYGAPAESGDYAQTRRRESTRAAAILGYGAPEFWNLPDRGLEYGERLIQRVLTAMEDHAAELVYAPSWWEVHPDHRVLALAATEAVRRCTRPLRLAMYEVGVPLQPNALLDITDLAERKASAVACFSSQLAQQDYDEQIASLNRFRTYTLPRTVRAAEGYLVLAAEELRNRIPRMMTQKDRLAVRGETGDTAATPLVSVIIPSMDGPRLKEALDSVALQTYPRIEAVVIDAKGEGHTPLPRWCGRFPLRFIPSDISLSRGRAADVGLEHAEGDYLVFLGEDDVFQPGDVASLVAEAARKQGTGLCSHADRRMTVFSGGVVDGSPRTGKPGKPAFLPLHAVLFDRSLAELRCRFDGDANVPEDGDFWDQAMQHVASIHPGACRHGHGLPGGEAGRHTIVRLPPWTSPAPLPPGASLARTPHPTERDSLRRRIQRAGRRIYETPPRGLTDALVRTAYRIWARLSSDSMITNDGKGTLEHHHHHH | failed
4 | MRIEPRPLPETLPDLGDLPPLLARLYAARGVRCAEELDKGLARLIPYQRLKGIEEGVALLVDALEGGQRILIVGDFDADGATASSVGVLALRMLGAAWVDYLVPNRFEYGYGLTPEIVGVALEKRPDLLVTVDNGISSVDGVQAAKAAGLKVLVTDHHLPGPELPAADAIINPNQPGCEFPSKA | failed
5 | MRIGVIMGGVSSEKQVSIMTGNEMIANLDKNKYEIVPITLNEKMDLIEKAKDIDFALLALHGKYGEDGTVQGTLESLGIPYSGSNMLSSGICMDKNISKKILRYEGIETPDWIELTKMEDLNFDELDKLGFPLVVKPNSGGSSVGVKIVYDKDELISMLETVFEWDSEVVIEKYIKGEEITCSIFDGKQLPIISIRHAAEFFDYNAKYDDASTIEEVIELPAELKERVNKASLACYKALKCSVYARVDMMVKDGIPYVMEVNTLPGMTQASLLPKSADAAGIHYSKLLDMIIETSLRVRKEEGF | not failed
6 | MRILFVGPPLYGLLYPVLSLAQAFRVNGHEVLIASGGKFAQKAAEAGLVVFDAAPGFDSEAGYRRQEALRKENNIGTKMGNFSFFSEEMTDPLVAFAGQWRPDLIVYPPLGVVGPLIAAKYDIPVVMQTVGFGHTPWHIKGVTKSLSNAYRRHGVSAPPRDLAWIDVTPPSMSILQNDGEPVISMQYVPYNGGAVWEEWWERTPDRKRLLVSLGTVKPMVDGLDLISWVMDSAGEVDAEIILHLPANARSDLRSLPPNVRLVDWLPMGVFLNGADGFIHHGGAGNTLTALHAGIPQIVFGQGADRPVNARAVVERGCGIIPGKSGLTSSMINTFLGNRALREASQEVAAEMAAQPCPTEVAKKLIAMLQHGLEHHHHHH | failed
7 | MRILSGMRPTGKLHIGHLVGALENWVKLQEEGNECFYFVADWHALTTHYDDVSKLKEYTRDLVRGFLACGIDPEKSVIFVQSGVKEHAELALLFSMIVSVSRLERVPTYKEIKSELNYKDLSTAGFLIYPVLQAADILIYKAEGVPVGEDQVYHIELTREIARRFNYLYDEVFPEPEAILSRVPKLPGTDGRKMSKSYGNIINLEISEKELEQTILRMMTDPARVRRSDPGNPENCPVWKYHQAFDISEEESKWVWEGCTTASIGCVDCKKLLLKNMKRKLAPIWENFRKIDEDPHYVDDVIMEGTKKAREVAAKTMEEVRRAMNLMF | not failed
